Ends that are not written are not given here.
B5: pro-MMP-9 (purified human pro-matrix metalloproteinase-9) (enzyme, UniProt P14780 20-707, looked up)
chain: APRQRQSTLVLFPGDLRTNLTDRQLAEEYLYRYGYTRVAEMRGESKSLGPALLLLQKQLSLPETGELDSATLKAMRTPRCGVPDLGRFQTFEGDLKWHHHNITYWIQNYSEDLPRAVIDDAFARAFALWSAVTPLTFTRVYSRDADIVIQFGVAEHGDGYPFDGKDGLLAHAFPPGPGIQGDAHFDDDELWSLGKGVVVPTRFGNADGAACHFPFIFEGRSYSACTTDGRSDGLPWCSTTANYDTDDRFGFCPSERLYTQDGNADGKPCQFPFIFQGQSYSACTTDGRSDGYRWCATTANYDRDKLFGFCPTRADSTVMGGNSAGELCVFPFTFLGKEYSTCTSEGRGDGRLWCATTSNFDSDKKWGFCPDQGYSLFLVAAHEFGHALGLDHSSVPEALMYPMYRFTEGPPLHKDDVNGIRHLYGPRPEPEPRPPTTTTPQPTAPPTVCPTGPPTVHPSERPTAGPTGPPSAGPTGPPTAGPSTATTVPLSPVDDACNVNIFDAIAEIGNQLYLFKDGKYWRFSEGRGSRPQGPFLIADKWPALPRKLDSVFEERLSKKLFFFSGRQVWVYTGASVLGPRRLDKLGLGADVAQVTGALRSGRGKMLLFSGRRLWRFDVKAQMVDPRSASEVDRMFPGVPLDTHDVFQYREKAYFCQDRFYWRVSSRSELNQVDQVGYVTYDILQCPED
notes: Purified proenzyme in plate assays; endogenous pro-MMP-9 of HT1080 and THP-1 cells in the co-immunoprecipitations
B6: MMP-9 collagen binding domain (CBD), amino acids Gly204-Gly373 (other, UniProt P14780 223-392, looked up)
chain: GNADGAACHFPFIFEGRSYSACTTDGRSDGLPWCSTTANYDTDDRFGFCPSERLYTQDGNADGKPCQFPFIFQGQSYSACTTDGRSDGYRWCATTANYDRDKLFGFCPTRADSTVMGGNSAGELCVFPFTFLGKEYSTCTSEGRGDGRLWCATTSNFDSDKKWGFCPDQG
modifications: biotinylated with sulfo-NHS-LC-biotin in some experiments
notes: range 223-392; Vector-derived residues (start Met from the NdeI site) not described further; also called recombinant CBD; biotinylated CBD

Legend:
[1] = target: T1, pro-MMP-9-ΔHC (Ala1-Gly424), pro-MMP-9 lacking the hinge region and the C domain (UniProt P14780 20-444); assay: phage binding assay (not shown)
T1 construct: range 20-444

[2] = target: B6; assay: phage binding assay
pro-MMP-3 = pro-MMP-3 (UniProt P08254 18-477, limits assumed); assay: phage binding assay
pro-MMP-2 = target: T2, pro-MMP-2 (UniProt P08253 30-660, limits assumed); assay: phage binding assay
T2 sequence (looked up): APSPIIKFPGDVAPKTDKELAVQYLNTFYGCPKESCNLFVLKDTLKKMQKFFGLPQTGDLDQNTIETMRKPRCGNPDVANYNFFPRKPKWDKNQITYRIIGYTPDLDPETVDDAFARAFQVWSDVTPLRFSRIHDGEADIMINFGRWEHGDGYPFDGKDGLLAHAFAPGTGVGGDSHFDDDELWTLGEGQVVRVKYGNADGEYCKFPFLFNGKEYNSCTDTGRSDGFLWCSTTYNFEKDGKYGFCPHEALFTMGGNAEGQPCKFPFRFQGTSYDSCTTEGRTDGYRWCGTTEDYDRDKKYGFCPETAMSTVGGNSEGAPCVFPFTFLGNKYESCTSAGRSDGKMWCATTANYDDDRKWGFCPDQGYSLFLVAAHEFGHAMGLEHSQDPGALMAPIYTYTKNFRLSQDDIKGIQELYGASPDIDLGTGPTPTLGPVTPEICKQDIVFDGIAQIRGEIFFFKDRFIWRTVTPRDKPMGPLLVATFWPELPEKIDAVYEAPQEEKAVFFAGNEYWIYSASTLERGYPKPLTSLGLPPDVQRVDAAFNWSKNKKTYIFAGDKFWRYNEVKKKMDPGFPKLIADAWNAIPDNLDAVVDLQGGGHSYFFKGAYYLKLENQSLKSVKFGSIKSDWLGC

[3] = target: B6; assay: pepspot membrane assay, chemiluminescence
[4] = target: B6; assay: solid phase assay, streptavidin-peroxidase
[5] = target: T3, urea-denaturated human plasma vitronectin (human, UniProt P04004 20-478); assay: solid phase assay, streptavidin-peroxidase
T3 construct: also called VN

[6] = target: the molecule itself; assay: solid phase assay, streptavidin-peroxidase
[7] = target: B5; assay: phage display selection; table of pro-MMP-9 binding peptide sequences, group I CBD-binding
[8] = target: B5; assay: phage display selection; table of pro-MMP-9 binding peptide sequences, group I CBD-binding; (6) is the number of isolated phage
platelet integrin αIIbβ3 = platelet integrin αIIbβ3 (UniProt P08514 32-1039; P05106 27-788); assay: pro-MMP-9 on immobilized integrin, read out by biotinylated gelatin
[9] = target: T4, αVβ3 integrin of HT1080 cells (human, UniProt P06756 31-1048; P05106 27-788); assay: immunoprecipitation with anti-integrin antisera, western blot for MMP-9
T4 construct: whole, on cells

[10] = target: T3, urea-denaturated human plasma …; assay: solid phase binding assay (discussion)

T3 sequence (P04004 20-478 limits assumed): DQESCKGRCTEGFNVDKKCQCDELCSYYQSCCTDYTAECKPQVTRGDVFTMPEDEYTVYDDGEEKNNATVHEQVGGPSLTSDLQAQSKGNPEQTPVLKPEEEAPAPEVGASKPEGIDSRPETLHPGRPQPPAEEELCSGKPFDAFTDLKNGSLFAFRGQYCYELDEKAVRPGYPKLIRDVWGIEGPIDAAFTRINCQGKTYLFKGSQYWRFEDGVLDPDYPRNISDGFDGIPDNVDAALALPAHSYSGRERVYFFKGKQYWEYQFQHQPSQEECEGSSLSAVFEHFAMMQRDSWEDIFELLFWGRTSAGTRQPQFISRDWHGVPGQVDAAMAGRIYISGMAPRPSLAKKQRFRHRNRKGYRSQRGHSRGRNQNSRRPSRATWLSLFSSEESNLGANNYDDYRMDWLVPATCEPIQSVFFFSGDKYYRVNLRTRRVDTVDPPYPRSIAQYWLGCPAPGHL
T4 sequence (P06756 31-1048, chain 1 of 2): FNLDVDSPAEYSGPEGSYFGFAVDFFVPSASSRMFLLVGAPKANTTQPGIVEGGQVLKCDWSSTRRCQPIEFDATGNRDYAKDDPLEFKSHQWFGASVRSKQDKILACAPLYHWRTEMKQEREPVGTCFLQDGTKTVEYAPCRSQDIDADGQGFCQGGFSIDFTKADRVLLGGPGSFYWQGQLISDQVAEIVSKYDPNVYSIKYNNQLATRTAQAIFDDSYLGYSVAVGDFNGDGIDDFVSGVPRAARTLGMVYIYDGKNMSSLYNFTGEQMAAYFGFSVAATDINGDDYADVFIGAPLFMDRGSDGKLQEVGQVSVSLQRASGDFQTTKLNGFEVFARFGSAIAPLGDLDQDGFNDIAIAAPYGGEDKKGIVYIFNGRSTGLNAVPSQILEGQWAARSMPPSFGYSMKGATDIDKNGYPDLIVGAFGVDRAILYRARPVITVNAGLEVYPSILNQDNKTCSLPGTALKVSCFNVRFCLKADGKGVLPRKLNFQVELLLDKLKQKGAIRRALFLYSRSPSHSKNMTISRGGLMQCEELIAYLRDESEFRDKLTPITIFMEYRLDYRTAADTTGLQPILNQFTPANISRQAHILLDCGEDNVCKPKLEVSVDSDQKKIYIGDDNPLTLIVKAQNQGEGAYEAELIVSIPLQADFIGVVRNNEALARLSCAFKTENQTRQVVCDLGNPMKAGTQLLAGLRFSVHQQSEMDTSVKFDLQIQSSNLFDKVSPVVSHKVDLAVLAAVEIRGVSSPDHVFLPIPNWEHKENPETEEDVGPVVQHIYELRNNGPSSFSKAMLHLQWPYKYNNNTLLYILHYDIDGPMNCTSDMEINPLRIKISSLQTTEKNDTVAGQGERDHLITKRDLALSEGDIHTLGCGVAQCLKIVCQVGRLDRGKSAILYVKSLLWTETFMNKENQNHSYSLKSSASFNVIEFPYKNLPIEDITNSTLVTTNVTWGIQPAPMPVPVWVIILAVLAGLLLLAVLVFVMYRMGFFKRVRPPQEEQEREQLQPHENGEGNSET
T4 sequence (P05106 27-788, chain 2 of 2): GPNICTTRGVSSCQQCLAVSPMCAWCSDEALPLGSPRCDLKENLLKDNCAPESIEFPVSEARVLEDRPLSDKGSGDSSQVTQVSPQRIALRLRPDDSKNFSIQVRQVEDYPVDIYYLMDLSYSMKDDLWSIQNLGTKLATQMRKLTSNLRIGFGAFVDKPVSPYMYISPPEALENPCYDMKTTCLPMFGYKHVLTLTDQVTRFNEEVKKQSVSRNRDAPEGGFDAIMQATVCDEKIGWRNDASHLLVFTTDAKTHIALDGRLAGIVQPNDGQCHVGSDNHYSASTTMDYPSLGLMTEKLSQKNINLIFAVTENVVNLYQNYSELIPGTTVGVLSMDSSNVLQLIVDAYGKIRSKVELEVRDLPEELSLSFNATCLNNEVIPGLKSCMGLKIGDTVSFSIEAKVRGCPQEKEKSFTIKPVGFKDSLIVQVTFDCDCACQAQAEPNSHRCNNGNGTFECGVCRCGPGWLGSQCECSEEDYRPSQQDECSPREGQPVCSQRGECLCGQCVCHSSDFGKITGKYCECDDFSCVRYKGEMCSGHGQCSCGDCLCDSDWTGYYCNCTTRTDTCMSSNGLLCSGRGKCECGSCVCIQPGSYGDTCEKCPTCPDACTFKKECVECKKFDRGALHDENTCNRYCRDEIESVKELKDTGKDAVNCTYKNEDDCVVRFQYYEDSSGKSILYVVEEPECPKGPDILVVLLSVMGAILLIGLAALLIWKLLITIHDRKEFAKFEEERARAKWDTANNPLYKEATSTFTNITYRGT
Sequence of pro-MMP-3 (P08254 18-477 limits assumed): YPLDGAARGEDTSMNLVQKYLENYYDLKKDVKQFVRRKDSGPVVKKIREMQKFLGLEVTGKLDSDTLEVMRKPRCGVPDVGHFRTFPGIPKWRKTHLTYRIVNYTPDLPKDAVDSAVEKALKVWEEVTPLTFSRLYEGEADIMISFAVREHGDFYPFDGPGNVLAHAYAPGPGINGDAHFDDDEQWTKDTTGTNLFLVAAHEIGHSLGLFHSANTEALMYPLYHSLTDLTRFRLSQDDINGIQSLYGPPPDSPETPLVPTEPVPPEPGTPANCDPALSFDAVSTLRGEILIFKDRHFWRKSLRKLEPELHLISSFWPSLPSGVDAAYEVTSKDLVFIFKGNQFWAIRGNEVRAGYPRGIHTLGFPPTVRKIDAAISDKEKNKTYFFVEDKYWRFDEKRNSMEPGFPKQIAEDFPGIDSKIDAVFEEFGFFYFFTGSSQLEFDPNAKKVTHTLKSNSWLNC
Sequence of platelet integrin αIIbβ3 (P08514 32-1039, chain 1 of 2): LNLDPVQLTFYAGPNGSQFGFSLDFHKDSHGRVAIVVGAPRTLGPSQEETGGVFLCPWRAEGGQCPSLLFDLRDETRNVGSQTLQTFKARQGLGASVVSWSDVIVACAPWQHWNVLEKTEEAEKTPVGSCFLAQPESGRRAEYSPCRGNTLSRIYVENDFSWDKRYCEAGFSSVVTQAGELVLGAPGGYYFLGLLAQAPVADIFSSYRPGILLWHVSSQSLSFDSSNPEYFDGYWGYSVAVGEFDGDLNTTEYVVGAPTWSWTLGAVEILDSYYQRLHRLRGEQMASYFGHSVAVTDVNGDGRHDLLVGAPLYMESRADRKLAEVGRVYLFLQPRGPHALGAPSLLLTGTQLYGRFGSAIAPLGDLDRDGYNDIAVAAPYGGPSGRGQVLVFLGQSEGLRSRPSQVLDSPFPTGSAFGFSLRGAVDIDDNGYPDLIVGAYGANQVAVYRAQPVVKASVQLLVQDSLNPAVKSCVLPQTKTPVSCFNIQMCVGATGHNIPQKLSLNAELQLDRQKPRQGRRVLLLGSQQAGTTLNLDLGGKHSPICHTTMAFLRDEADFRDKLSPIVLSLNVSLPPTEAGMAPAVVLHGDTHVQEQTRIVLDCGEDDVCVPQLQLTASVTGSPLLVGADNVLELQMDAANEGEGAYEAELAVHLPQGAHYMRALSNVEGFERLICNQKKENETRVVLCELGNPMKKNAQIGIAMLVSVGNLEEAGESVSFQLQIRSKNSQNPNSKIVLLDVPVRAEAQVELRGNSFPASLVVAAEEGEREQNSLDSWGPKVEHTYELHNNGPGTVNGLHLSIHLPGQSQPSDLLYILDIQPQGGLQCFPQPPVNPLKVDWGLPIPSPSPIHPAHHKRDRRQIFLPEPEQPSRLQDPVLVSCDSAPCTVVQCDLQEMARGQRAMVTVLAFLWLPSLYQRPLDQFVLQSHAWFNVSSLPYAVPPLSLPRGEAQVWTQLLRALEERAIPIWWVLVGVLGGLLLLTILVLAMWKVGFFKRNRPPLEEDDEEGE
Sequence of platelet integrin αIIbβ3 (P05106 27-788, chain 2 of 2): as the sequence (P05106 27-788, chain 2 of 2) above

B1: CRV phage (CRVYGPYLLC displayed on phage) (peptide)
peptide: CRVYGPYLLC
modifications: cysteine pairing not given here; also: displayed on phage as coat protein fusion
notes: also called phage carrying CRV
Question: Does B1 bind [1]?
Answer: Result: no binding

Question: Does B1 bind [2]?
Answer: Result: no binding (tested: 20 ng/well; 10^8 transducing units/well)

Question: Does B1 bind (pro-MMP-3)?
Answer: Result: no binding (tested: 20 ng/well; 10^8 transducing units/well)

Question: Does B1 bind (pro-MMP-2)?
Answer: Result: no binding (tested: 20 ng/well; 10^8 transducing units/well)

B2: fibronectin-derived peptide TTPNSLLVSWQPPRARIT (peptide)
peptide: TTPNSLLVSWQPPRARIT
notes: Synthesized on a cellulose membrane (pepspot); also called PPC-like fibronectin peptide
Question: Does B2 bind [3]?
Answer: Result: binds

B3: integrin β5 I-EGF2+3 fragment (Glu476-Asn563) with N-terminal His6-tag (receptor, UniProt P18084 499-586, looked up)
chain: ECQDGENQSVYQNLCREAEGKPLCSGRGDCSCNQCSCFESEFGKIYGPFCECDNFSCARNKGVLCSGHGECHCGECKCHAGYIGDNCN
modifications: biotinylated where used as the labelled ligand
notes: range 476-563; also called I-EGF2+3 fragment of β5 integrin; biotinylated β5 I-EGF2+3; not shown: N-terminal His6-tag from the pHAT2 vector
Question: Does B3 bind [4]?
Answer: Result: no binding (tested: biotinylated fragment 2.5 µg/ml)

Question: Does B3 bind [5]?
Answer: Result: no binding (tested: biotinylated fragment 2.5 µg/ml)

Question: Does B3 bind [6]?
Answer: Result: no binding (tested: biotinylated fragment 2.5 µg/ml)

Question: Does CGFGRWQPPC (cysteine pairing not given here; also: displayed on phage, selected by biopanning) [phage peptide CGFGRWQPPC] bind [7]?
Answer: Result: binds

Question: Does CGWGRYSPPC (cysteine pairing not given here; also: displayed on phage, selected by biopanning) [phage peptide CGWGRYSPPC] bind [7]?
Answer: Result: binds

B4: PPC peptide-bearing phage (CGYGRFSPPC displayed on phage) (peptide)
peptide: CGYGRFSPPC
modifications: cysteine pairing not given here; also: displayed on phage
notes: also called PPC phage; phage carrying PPC
Question: Does B4 bind [8]?
Answer: Result: binds

Question: Does B5 bind (platelet integrin αIIbβ3)?
Answer: Result: no binding

Question: Does B5 bind [9]?
Answer: Result: no binding

Question: Does B6 bind [10]?
Answer: Result: binds
